From patent publication US20110217695A1

Molecular target: IGF1R (on MCF-7 cells) (UniProt P08069)
Assay: cell-based or functional assay

UniProt P08069, sequence (P08069 31-1367 limits assumed): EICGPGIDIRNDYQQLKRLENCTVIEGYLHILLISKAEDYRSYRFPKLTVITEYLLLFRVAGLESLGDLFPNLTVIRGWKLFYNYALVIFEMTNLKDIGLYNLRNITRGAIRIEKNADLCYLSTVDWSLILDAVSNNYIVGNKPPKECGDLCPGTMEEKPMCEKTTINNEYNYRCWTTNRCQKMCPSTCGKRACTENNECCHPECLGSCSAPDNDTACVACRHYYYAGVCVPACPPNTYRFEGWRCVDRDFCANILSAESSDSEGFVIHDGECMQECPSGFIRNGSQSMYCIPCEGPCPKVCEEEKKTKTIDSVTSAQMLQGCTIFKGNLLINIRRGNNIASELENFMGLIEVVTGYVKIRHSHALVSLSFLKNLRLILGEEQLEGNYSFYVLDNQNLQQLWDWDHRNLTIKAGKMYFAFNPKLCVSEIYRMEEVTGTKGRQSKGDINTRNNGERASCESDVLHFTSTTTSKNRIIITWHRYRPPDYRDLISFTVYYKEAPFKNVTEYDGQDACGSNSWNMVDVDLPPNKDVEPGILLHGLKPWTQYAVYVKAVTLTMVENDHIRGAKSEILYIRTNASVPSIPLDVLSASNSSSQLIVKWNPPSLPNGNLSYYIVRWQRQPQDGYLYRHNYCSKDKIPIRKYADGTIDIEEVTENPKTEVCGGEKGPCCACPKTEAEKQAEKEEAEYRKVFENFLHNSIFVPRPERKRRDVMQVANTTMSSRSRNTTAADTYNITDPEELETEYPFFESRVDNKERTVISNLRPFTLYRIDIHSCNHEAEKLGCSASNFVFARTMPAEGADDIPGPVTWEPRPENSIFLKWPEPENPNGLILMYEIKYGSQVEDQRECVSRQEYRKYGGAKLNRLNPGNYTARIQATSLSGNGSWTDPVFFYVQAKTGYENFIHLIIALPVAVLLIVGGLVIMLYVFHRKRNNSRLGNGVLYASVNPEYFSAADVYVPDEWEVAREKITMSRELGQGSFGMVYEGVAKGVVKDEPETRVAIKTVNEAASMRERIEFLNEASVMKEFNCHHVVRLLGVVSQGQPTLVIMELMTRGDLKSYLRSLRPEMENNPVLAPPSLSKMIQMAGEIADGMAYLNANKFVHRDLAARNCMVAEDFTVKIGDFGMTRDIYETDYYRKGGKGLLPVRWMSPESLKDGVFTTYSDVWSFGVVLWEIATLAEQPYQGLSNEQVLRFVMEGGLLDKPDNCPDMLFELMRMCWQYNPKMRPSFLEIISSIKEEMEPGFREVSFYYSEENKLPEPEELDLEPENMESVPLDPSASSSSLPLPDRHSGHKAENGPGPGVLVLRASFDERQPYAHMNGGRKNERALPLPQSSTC

B1: 19D12 antibody (purified antibody obtained from 19D12 hybridoma) (antibody, from a related filing, V domains shown)
VH: EVQLVQSGGGLVHPGGSLRLSCAASGFTFSSFAMHWVRQAPGKGLEWISVIDTRGATYYADSVKGRFTISRDNAKNSLYLQMNSLRAEDMAVYYCARLGNFYYGMDVWGQGTTVTVSS
VL: EIVLTQVPDFQSVTPKEKVTITCRASQSIGSSLHWYQQKPDQSPKLLIKYASQSLSGVPSRFSGSGSGTDFTLTINSLEAEDAAAYYCHQSSRLPHTFGGGTKVEIKR
B1 gave a % Inhibition, KIRA assay (IGF-I-stimulated receptor phosphorylation in MCF-7 cells), at 0.01 nM Ab (first row) of -3.26%, a % Inhibition, KIRA assay (IGF-I-stimulated receptor phosphorylation in MCF-7 cells), at 0.01 nM Ab (second row) of -0.34% and a % Inhibition, KIRA assay (IGF-I-stimulated receptor phosphorylation in MCF-7 cells), at 0.03 nM Ab of -3.18%. For the same binder, the % Inhibition, KIRA assay (IGF-I-stimulated receptor phosphorylation in MCF-7 cells), at 0.05 nM Ab was 0.87%, the % Inhibition, KIRA assay (IGF-I-stimulated receptor phosphorylation in MCF-7 cells), at 0.10 nM Ab was 3.82% and the % Inhibition, KIRA assay (IGF-I-stimulated receptor phosphorylation in MCF-7 cells), at 0.21 nM Ab was 10.1%. For the same binder, the % Inhibition, KIRA assay (IGF-I-stimulated receptor phosphorylation in MCF-7 cells), at 0.42 nM Ab was 18%, the % Inhibition, KIRA assay (IGF-I-stimulated receptor phosphorylation in MCF-7 cells), at 0.83 nM Ab was 39.4% and the % Inhibition, KIRA assay (IGF-I-stimulated receptor phosphorylation in MCF-7 cells), at 1.67 nM Ab was 40.5%. The % Inhibition, KIRA assay (IGF-I-stimulated receptor phosphorylation in MCF-7 cells), at 3.34 nM Ab was 54.6% and the % Inhibition, KIRA assay (IGF-I-stimulated receptor phosphorylation in MCF-7 cells), at 6.67 nM Ab was 69.6%.
